Patent US20090130676A1 (GENERAL HOSPITAL, published 2009)

How the values were obtained:
Assay in all cases: yeast interaction trap mating assay, lacZ reporter on Xgal
[1] = target: pep13 (FIG. 4B numbering), thioredoxin prey fusion (E. coli, UniProt P0AA25 1-35 = thioredoxin; P0AA25 34-109 = thioredoxin)
[2] = target: pep7 (FIG. 4B numbering), thioredoxin prey fusion (E. coli, UniProt P0AA25 1-35 = thioredoxin; P0AA25 34-109 = thioredoxin)
[3] = target: pep6 (FIG. 4B numbering), thioredoxin prey fusion (E. coli, UniProt P0AA25 1-35 = thioredoxin; P0AA25 34-109 = thioredoxin)
[4] = target: pep14 (FIG. 4B numbering), thioredoxin prey fusion (E. coli, UniProt P0AA25 1-35 = thioredoxin; P0AA25 34-109 = thioredoxin)
[5] = target: pep9 (FIG. 4B numbering), thioredoxin prey fusion (E. coli, UniProt P0AA25 1-35 = thioredoxin; P0AA25 34-109 = thioredoxin)
[6] = target: pep12 (FIG. 4B numbering), thioredoxin prey fusion (E. coli, UniProt P0AA25 1-35 = thioredoxin; P0AA25 34-109 = thioredoxin)

Measured: binding result

B1: Cdk7 (enzyme, not shown: small tags and cut ends)
chain: ALDVKSRAKRYEKLDFLGEGQFATVYKARDKNTNQIVAIKKIKLGHRSEAKDGINRTALREIKLLQELSHPNIIGLLDAFGHKSNISLVFDFMETDLEVIIKDNSLVLTPSHIKAYMLMTLQGLEYLHQHWILHRDLKPNNLLLDENGVLKLADFGLAKSFGSPNRAYTHQVVTRWYRAPELLFGARMYGVGVDMWAVGCILAELLLRVPFLPGDSDLDQLTRIFETLGTPTEEQWPDMCSLPDYVTFKSFPGIPLHHIFSAAGDDLLDLIQGLFLFNPCARITATQALKMKYFSNRPGPTPGCQLPRPNCPVETLKEQSNPALAIKRKRTEALEQGGLPKKLIF
notes: Bait strain named only on the sheet
no binding: all assays above
